The text below walks through data of article PMC9669019, “Molecular basis for integrin adhesion receptor binding to p21-activated kinase 4 (PAK4)” (Communications Biology, 2022).

One may read the stoichiometry N as the number of molecules, sites or subunits per partner or assembly.

The target of test [1] is T1, PAK4 catalytic domain, purified recombinant (PAK4-cat) (human, UniProt O96013 286-591). The experiment in a line: cell-based or functional assay.
In test [2] the target is T1, PAK4 catalytic domain, purified …. The experiment in a line: pull-down; His-tagged β5 tails on Ni-NTA beads; varying concentrations of purified PAK4-cat in buffer X-T, 2 h, 4 °C; apparent affinity, one-site specific-binding model, three independent experiments. Particulars: both partners purified.
A further test addresses T2, PAK4 catalytic domain (human, UniProt O96013 286-591).
T2 construct: the GFP-PAK4-cat of the pull-downs is 302-591; The His tag is cleavable by TEV protease; also called PAK4 kinase domain; source: E. coli BL21-CodonPlus(DE3)RILP, purified (HisTrap, Resource Q, Superdex 200)
Briefly: ITC; Nano-ITC, 25 °C, PBS pH 7.4; 407 µM integrin β5^743–799 in the syringe titrated into 44 or 72 µM PAK4cat in the sample cell; PAK4cat pre-incubated with 5 mM MgCl2 and 1 mM AMP-PNP; 20 injections of 2.5 µL. Particulars: both partners purified. In general terms: In ITC the heat of successive injections is recorded.

Test [3] addresses T1, PAK4 catalytic domain, purified …. Briefly: ITC; Nano-ITC, 25 °C, PBS pH 7.4; 407 µM integrin β5 743–799 in the syringe, 44 and 72 µM PAK4cat (pre-incubated with 5 mM MgCl2 and 1 mM AMP-PNP) in the cell; 20 injections of 2.5 µL. Particulars: both partners purified.

Where “and” joins values, the source holds several entries; their conditions need not be identical. Equal values may be shown once. Ends that are not written are not given here. helical region = not defined here

T1 sequence (O96013 286-591): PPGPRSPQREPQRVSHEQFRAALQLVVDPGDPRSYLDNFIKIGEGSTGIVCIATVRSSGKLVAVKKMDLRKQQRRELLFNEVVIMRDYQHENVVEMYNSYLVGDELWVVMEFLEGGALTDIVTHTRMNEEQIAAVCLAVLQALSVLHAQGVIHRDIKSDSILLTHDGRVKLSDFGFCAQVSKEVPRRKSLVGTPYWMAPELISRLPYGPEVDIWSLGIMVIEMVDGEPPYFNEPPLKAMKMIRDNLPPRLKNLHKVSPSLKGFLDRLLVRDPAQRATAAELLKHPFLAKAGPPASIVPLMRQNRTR
T2 sequence (O96013 286-591): as above

B1: integrin β5 peptide, residues Glu760-Ser770 (peptide)
peptide: Ac-ERSRARYEMAS-NH2
In the case of B1, the “inhibition of PAK4 phosphorylation of a LIMK1 10mer peptide (…, 50 µM) in a radioactive in vitro kinase assay, β5 peptide 0–1024 µM, 1 mg/ml BSA: IC50” value in test [1] came out at 160 µM.

B2: His-tagged recombinant model of the integrin β5 cytoplasmic tail (domain or fragment)
chain: {His‑tag-helical region-Gly4}-KLLVTIHDRREFAKFQSERSRARYEMASNPLYRKPISTHTVDFTFNKFNKSYNGTVD
modifications: not fully specified; reading uncertain
With B2, the Kd in test [2] was roughly 1.8 µM.

B3: 6xHis integrin β5 full-length cytosolic peptide (residues 743–799) (domain or fragment, UniProt P18084 743-799, looked up)
chain: KLLVTIHDRREFAKFQSERSRARYEMASNPLYRKPISTHTVDFTFNKFNKSYNGTVD
modifications: also: 6xHis tag, position not given here
notes: also called integrin β5 cytoplasmic tail
Turning to B3, in the test with PAK4 catalytic domain, the Kd was 5.1 µM and 4.8 µM; the “stoichiometry N” value was 1.4 and 0.7.

B4: 6xHis integrin β5 full-length cytosolic peptide (residues 743–799) (domain or fragment, UniProt P18084 743-799, looked up)
chain: B3 chain
modifications: also: 6xHis tag, position not given here
notes: subcloned into a pET32 vector
For B4, in test [3], the Kd was found to be 4.95 ± 1.5 µM, the dH is -2.02 ± 0.179 kcal/mol and the “stoichiometry N” value stood at 1.05 ± 0.35.
